Laboratory results reported in paper PMC314469, “Protein Interaction Networks by Proteome Peptide Scanning” (PLoS Biology, 2004).

T1: Abp1 SH3 (ABP1_YEAST), P15891
T1 chain: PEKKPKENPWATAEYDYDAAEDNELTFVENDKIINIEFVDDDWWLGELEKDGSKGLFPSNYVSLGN


Biological target: T1, Abp1 SH3 (ABP1_YEAST), P15891
Test: SPOT array

normalised SPOT signal, Boehringer light units (BLU); mean over the file's lines of this peptide | Binder
109 | KKEYSETFYHPYKP [YPL008W 3-16]
133000 | KPTPPPKPSHLKP [YNL020C 608-620]
110 | KRKRSKGEVNPSKP [YPR137W 9-22]
108 | KLQGSFNPEYIKP [YML072C 1243-1255]
45.8 | KPVAPTSTDAPAKP [YOL027C 66-79]
95.9 | KKLLLKGYIPPYKP [YMR104C 605-618]
71.4 | KRYDYKKPTVNRP [YPL074W 344-356]
94.1 | KETVTKQPTEEKP [YNL110C 11-23]
98.7 | KQKNIYVISTPKRP [YLR398C 492-505]
273 | KGVRNIMIPFPNRP [YOR093C 1313-1326]
15.7 | KNYDVIVPNVWRP [YML115C 378-390]
202 | KNDGSSSFVKPRRP [YNL215W 286-299]
154 | KPGWVVYPPPPKP [YML035C 221-233]
898 | KGIIMDAKFHPFKP [YMR049C 639-652]
1140 | KPLININPYTRKP [YLR357W 223-235]
114 | KGPDVEFLMIPFRP [YOR188W 88-101]
89 | KNSDMMIPLDVKP [YOL081W 3046-3058]
80 | KKIEAKKATRPSKP [YNL173C 323-336]
184 | KKSRSTGFKNPLRP [YML061C 150-163]
120 | KKIKKKSPTGMKP [YOL075C 641-653]
6230 | KMISNRRPVPRRP [YPR091C 656-668]
116 | KELSRLTYYGPEKP [YLR305C 1008-1021]
166 | KIQELYLPHMSRP [YMR131C 92-104]

The next lines start with the binder.

Binder | normalised SPOT signal, Boehringer light units (BLU); mean over the file's lines of this peptide
KHKQHKPKVKPSKP [YHL007C 233-246] | 13.3
KLHFSSFPNDIRP [YER097W 23-35] | 396
KSDKEISPKSQRP [YER025W 165-177] | 75.6
KRLLMKGYIPPYKP [YKL126W 608-621] | 169
KQQQEQQNKAPEKP [YGL105W 191-204] | 97.5
KPEYFPFPIYDKP [YBR086C 485-497] | 96.4
KKKSSPATKVPSKP [YGL207W 456-469] | 65
KLKELQTITVPGKP [YER124C 120-133] | 131
KEYTRFNQIFPKKP [YDR182W 159-172] | 54
KHSTDEKPNFTKP [YLR087C 2329-2341] | 125
KRSLEENPVNKRP [YAL011W 331-343] | 33.4
KIEGSIPENEPSKP [YHR102W 306-319] | 97.5
KRRTSLFPWLHKP [YDR389W 506-518] | 122
KFSSDNDPLQYRP [YBR033W 108-120] | 71.3
KIGLIQFQISPPKP [YDL143W 233-246] | 40.5
KKISFNPVVTPIRP [YFR023W 33-46] | 0
KRAKEYIANLPMRP [YGR040W 256-269] | 22
KLGPISTSKSPKKP [YJL051W 233-246] | 200

Binder | normalised SPOT signal, Boehringer light units (BLU); mean over the file's lines of this peptide
KPFNPTLPEGIRP [YJL050W 736-748] | 87.3
KKQTQLSSTAPKKP [YGR056W 686-699] | 34.9
KFMSAIKPANQKP [YAL024C 394-406] | 2680
KILDLKFPPKERP [YKL211C 326-338] | 257
KMQRYFRPIIVRP [YLR290C 188-200] | 541
KHAAKIDLVEPVKP [YBR261C 84-97] | 121
KKPKLNKRVLPSKP [YLR183C 347-360] | 128
KLYYVLYSSLPSKP [YGR216C 582-595] | 0.4
KMIMKLIPKDVKP [YJL131C 312-324] | 1480
KRESLNQPSTTKP [YHR084W 174-186] | 134
KKHNSWVPKWLKP [YFL034W 914-926] | 194
KLKITRNPNPSKP [YHR208W 27-39] | 245
KLDIISDPESERP [YGL004C 356-368] | 107
KGFRFNLPPTDRP [YGR202C 91-103] | 166
KGMENELPFMKRP [YIL077C 15-27] | 332
KKPASKAPAEKKP [YBL002W 7-19] | 174
KKLSSSMPNSPKKP [YDL117W 113-126] | 153
